What is called Kd is the equilibrium constant for the complex coming apart. The term koff denotes a measure of how fast the partners let go of each other. One may read the kon as a measure of how fast the partners come together. The low end stands for slower complex formation, the high end for faster complex formation.

Results on two molecules are retold here after US20240132626A1 (Eli Lilly, published 2024).

Holding throughout (test): SPR, captured via anti-human kappa, soluble ECD injected
On the technique in general: Surface plasmon resonance follows binding to a sensor surface in real time, without labels.

In assay [1] the target is T1, Soluble human cMet extracellular domain (ECD) protein (human, UniProt P08581 25-932).
T1 construct: extracellular domain; His-tagged

Assay [2] has as its target T2, Soluble human EGFR ECD protein (human, UniProt P00533 25-645).
T2 construct: extracellular domain; His-tagged

The target of assay [3] is T3, Soluble human HER-2 extracellular domain (ECD) protein (human, UniProt P04626 23-652).
T3 construct: extracellular domain; His-tagged

T1 sequence (P08581 25-932): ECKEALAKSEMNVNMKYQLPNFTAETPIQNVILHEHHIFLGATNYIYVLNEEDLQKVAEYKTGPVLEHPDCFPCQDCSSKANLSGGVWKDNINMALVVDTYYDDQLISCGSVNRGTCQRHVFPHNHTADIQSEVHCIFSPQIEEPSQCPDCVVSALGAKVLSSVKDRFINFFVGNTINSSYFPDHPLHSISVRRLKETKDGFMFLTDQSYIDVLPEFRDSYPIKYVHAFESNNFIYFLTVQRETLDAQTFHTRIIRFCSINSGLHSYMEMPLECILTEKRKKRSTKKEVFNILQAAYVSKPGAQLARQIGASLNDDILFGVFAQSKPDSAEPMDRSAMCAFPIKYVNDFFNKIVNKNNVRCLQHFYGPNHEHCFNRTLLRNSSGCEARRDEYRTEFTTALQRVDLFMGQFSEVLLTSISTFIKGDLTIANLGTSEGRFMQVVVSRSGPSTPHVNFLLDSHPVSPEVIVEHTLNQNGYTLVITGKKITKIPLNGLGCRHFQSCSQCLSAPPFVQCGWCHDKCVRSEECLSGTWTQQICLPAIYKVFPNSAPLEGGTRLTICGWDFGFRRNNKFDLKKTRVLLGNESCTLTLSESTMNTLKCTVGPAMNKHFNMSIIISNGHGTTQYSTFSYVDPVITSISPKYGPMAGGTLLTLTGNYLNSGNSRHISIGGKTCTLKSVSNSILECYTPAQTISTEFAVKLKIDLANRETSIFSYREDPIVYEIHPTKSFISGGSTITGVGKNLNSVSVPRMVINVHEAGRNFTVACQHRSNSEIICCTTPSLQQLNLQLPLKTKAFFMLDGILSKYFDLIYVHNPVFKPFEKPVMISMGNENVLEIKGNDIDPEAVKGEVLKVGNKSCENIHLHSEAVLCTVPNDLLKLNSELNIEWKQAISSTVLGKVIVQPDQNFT

B1: HER-2 X EGFR X cMet TsAb_N_H (other)
heavy 1: EVQLVESGGGLVQPGGSLRLSCAASGYTFTSYWLHWVRQAPGKGLEWVGMIDPSNSDTRFNPNFKDRFTISADTSKNTAYLQMNSLRAEDTAVYYCATYRSYVTPLDYWGRGTLVTVSSASTKGPSVFPLAPSSKSTSGGTAALGCLVADYFPEPVTVSWNSGALTSGVHTFPAVLQSSGLYSLSSVVTVPSSSLGTQTYICNVNHKPSNTKVDERVEPKSCGGGGSGGGGSGGGGSGGGGSGGGGSQVQLVQSGAEVKKPGASVKVSCKASGYTFTSHWMHWVRYAPGQGLEWIGEFNPSNGRTNYNEKFKSKATMTVDTSTNTAYMELSSLRSEDTAVYYCASRDYDYDGRYFDYWGQGTLVTVSSASTKGPSVFPLAPCSKSTSGGTAALGCLVKDYFPEPVTVSWNSGALTSGVHTFPAVLQSSGLYSLSSVVTVPSSSLGTQTYICNVNHKPSNTKVDKKVEPDSGDKTHTCPPCPAPEAAGGPSVFLFPPKPKDTLMISRTPEVTCVVVDVSHEDPEVKFNWYVDGVEVHNAKTKPREEQYQSTYRVVSVLTVLHQDWLNGKEYKCKVSNKALPAPIEKTISKAKGQPREPQVYTLPPSRGDMTKNQVQLTCLVKGFYPSDIAVEWESNGQPENNYKTTPPVLDSDGSFFLASKLTVDKSRWQQGNVFSCSVMHEALHNHYTQKSLSLSPG
light 1: DIQMTQSPSSLSASVGDRVTITCSASSSVTYMYWYQRKPGKAPKLLIYDTSNLASGVPSRFSGSGSGTDYTFTISSLQPEDIATYYCQQWSSHIFTFGQGTKVEIKRTVAAPSVFIFPPSKEQLKSGTASVVCLLNNFYPREAKVQWKVDNALQSGNSQESVTEQDSKDSTYSLSSTLTLSKADYEKHKVYACEVTHQGLSSPVTKSFNRGEC
heavy 2: EVQLVESGGGLVQPGGSLRLSCAASGFTFTDYTMDWVRKAPGKGLEWVADVNPNSGGSIYNQEFKGRFTLSVDRSKNTLYLQMNSLRAEDTAVYYCARNLGPSFYFDYWGQGTLVTVSSASTKGPSVFPLAPSSKSTSGGTAALGCLVKDYFPEPVTVSWNSGALTSGVATGPAVLQSSGLYSLSSVVTVPSSSLGTQTYICNVNHKPSNTKVDKKVEPKSCDKTHTCPPCPAPEAAGGPSVFLFPPKPKDTLMISRTPEVTCVVVDVSHEDPEVKFNWYVDGVEVHNAKTKPREEQYQSTYRVVSVLTVLHQDWLNGKEYKCKVSNKALPAPIEKTISKAKGQPREPQVSTLPPSREEMTKNQVSLMCLVYGFYPSDIAVEWESNGQPENNYKTTPPVLDSDGSFFLYSVLTVDKSRWQQGNVFSCSVMHEALHNHYTQKSLSLSPG
light 2: RIQMTQSPSSLSASVGDRVTITCKASQDVSIGVAWYQDKPGKAPKLLIYSASYRYTGVPSRFSGSGSGTDFTLTISSLQPEDFATYYCQQYYIYPYTFGQGTKVEIKGQPKAAPSVTLFPPSSEELQANKATLVCYISDFYPGAVTVAWKADSSPVKAGVETTTPSKQSNNKYAAWSYLSLTPEQWKSHRSYSCQVTHEGSTVEKTVAPTEC
light 3: DIQMTQSPSSLSASVGDRVTITCKSSQSLLYTSSQKNYLAWYQQKPGDAPKLLIYWASTRESGVPSRFSGSGSGTDFTLTISSLQPEDFATYYCQQYYAYPWTFGQGTKVEIKRTVAAPSVFIFPPSDKQLKSGTARVVCLLNNFYPREAKVQWKVDNALQSGNSQESVTEQDSKDSTYSLISTLTLSKADYEKHKVYACEVTHQGLSSPVTKSFNRGEC
notes: Trispecific IgG-Fab antibody; the anti-cMet Fab is fused N-terminally through its heavy chain fragment
As to B1, the Kd in assay [1] was found to be 0.31 nM; in assay [2], 13 nM; in assay [3], 1.1 nM. Further, the koff turned out to be 0.00016 s⁻¹ in assay [1], 0.0085 s⁻¹ in assay [2] and 0.00026 s⁻¹ in assay [3]. In addition, the on-rate (kon) in assay [1] is 520000 M⁻¹ s⁻¹; in assay [2], 680000 M⁻¹ s⁻¹; in assay [3], 230000 M⁻¹ s⁻¹.

B2: HER-2 X EGFR X cMet TsAb_N_L (other)
heavy 1: DIQMTQSPSSLSASVGDRVTITCKSSQSLLYTSSQKNYLAWYQQKPGDAPKLLIYWASTRESGVPSRFSGSGSGTDFTLTISSLQPEDFATYYCQQYYAYPWTFGQGTKVEIKRTVAAPSVFIFPPSDKQLKSGTARVVCLLNNFYPREAKVQWKVDNALQSGNSQESVTEQDSKDSTYSLISTLTLSKADYEKHKVYACEVTHQGLSSPVTKSFNRGECGGGGSGGGGSGGGGSGGGGSGGGGSQVQLVQSGAEVKKPGASVKVSCKASGYTFTSHWMHWVRYAPGQGLEWIGEFNPSNGRTNYNEKFKSKATMTVDTSTNTAYMELSSLRSEDTAVYYCASRDYDYDGRYFDYWGQGTLVTVSSASTKGPSVFPLAPCSKSTSGGTAALGCLVKDYFPEPVTVSWNSGALTSGVHTFPAVLQSSGLYSLSSVVTVPSSSLGTQTYICNVNHKPSNTKVDKKVEPDSGDKTHTCPPCPAPEAAGGPSVFLFPPKPKDTLMISRTPEVTCVVVDVSHEDPEVKFNWYVDGVEVHNAKTKPREEQYQSTYRVVSVLTVLHQDWLNGKEYKCKVSNKALPAPIEKTISKAKGQPREPQVYTLPPSRGDMTKNQVQLTCLVKGFYPSDIAVEWESNGQPENNYKTTPPVLDSDGSFFLASKLTVDKSRWQQGNVFSCSVMHEALHNHYTQKSLSLSPG
light 1: DIQMTQSPSSLSASVGDRVTITCSASSSVTYMYWYQRKPGKAPKLLIYDTSNLASGVPSRFSGSGSGTDYTFTISSLQPEDIATYYCQQWSSHIFTFGQGTKVEIKRTVAAPSVFIFPPSKEQLKSGTASVVCLLNNFYPREAKVQWKVDNALQSGNSQESVTEQDSKDSTYSLSSTLTLSKADYEKHKVYACEVTHQGLSSPVTKSFNRGEC
heavy 2: EVQLVESGGGLVQPGGSLRLSCAASGFTFTDYTMDWVRKAPGKGLEWVADVNPNSGGSIYNQEFKGRFTLSVDRSKNTLYLQMNSLRAEDTAVYYCARNLGPSFYFDYWGQGTLVTVSSASTKGPSVFPLAPSSKSTSGGTAALGCLVKDYFPEPVTVSWNSGALTSGVATGPAVLQSSGLYSLSSVVTVPSSSLGTQTYICNVNHKPSNTKVDKKVEPKSCDKTHTCPPCPAPEAAGGPSVFLFPPKPKDTLMISRTPEVTCVVVDVSHEDPEVKFNWYVDGVEVHNAKTKPREEQYQSTYRVVSVLTVLHQDWLNGKEYKCKVSNKALPAPIEKTISKAKGQPREPQVSTLPPSREEMTKNQVSLMCLVYGFYPSDIAVEWESNGQPENNYKTTPPVLDSDGSFFLYSVLTVDKSRWQQGNVFSCSVMHEALHNHYTQKSLSLSPG
light 2: RIQMTQSPSSLSASVGDRVTITCKASQDVSIGVAWYQDKPGKAPKLLIYSASYRYTGVPSRFSGSGSGTDFTLTISSLQPEDFATYYCQQYYIYPYTFGQGTKVEIKGQPKAAPSVTLFPPSSEELQANKATLVCYISDFYPGAVTVAWKADSSPVKAGVETTTPSKQSNNKYAAWSYLSLTPEQWKSHRSYSCQVTHEGSTVEKTVAPTEC
chain: EVQLVESGGGLVQPGGSLRLSCAASGYTFTSYWLHWVRQAPGKGLEWVGMIDPSNSDTRFNPNFKDRFTISADTSKNTAYLQMNSLRAEDTAVYYCATYRSYVTPLDYWGRGTLVTVSSASTKGPSVFPLAPSSKSTSGGTAALGCLVADYFPEPVTVSWNSGALTSGVHTFPAVLQSSGLYSLSSVVTVPSSSLGTQTYICNVNHKPSNTKVDERVEPKSC
notes: Trispecific IgG-Fab antibody; the anti-cMet Fab is fused N-terminally through its light chain
As for B2, in assay [1], the dissociation constant Kd amounted to 0.36 nM, the off-rate constant (koff) stood at 0.00016 s⁻¹ and the association rate constant (kon) came to 440000 M⁻¹ s⁻¹. Besides, in assay [2], the Kd was 13 nM, the koff is 0.009 s⁻¹ and the on-rate constant (kon) came out at 720000 M⁻¹ s⁻¹. In assay [3], this molecule came in with a Kd of 0.9 nM, a koff of 0.00024 s⁻¹ and an association rate constant (kon) of 260000 M⁻¹ s⁻¹.
